Changes are numbered by the printed parent chain.
T1: Cynomolgus CD3εδ Fc heterodimer (Cy CD3ε Fc / CD3δ Fc-HIS) (cynomolgus, UniProt Q95LI8 22-100)
T1 chain 1: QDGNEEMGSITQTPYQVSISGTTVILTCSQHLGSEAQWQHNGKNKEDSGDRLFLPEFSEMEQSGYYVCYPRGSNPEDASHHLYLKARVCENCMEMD
T1 chain 2: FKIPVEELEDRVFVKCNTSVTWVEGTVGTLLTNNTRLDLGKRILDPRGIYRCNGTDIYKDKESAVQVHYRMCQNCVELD

B1: SAD10320_P02_E05 (ADI-57366) (antibody, V domains shown)
VH: QVQLVQSGAEVKKPGASVKVSCKASGFNIKDYYMHWVRQAPGQRLEWMGWIDLENANTIYDAKFQGRVTITRDTSASTAYMELSSLRSEDTAVYYCARDMHGRYFYDVWGQGTLVTVSS
VL: DIVMTQSPDSLAVSLGERATINCKSSQSLLNARTGKNYLAWYQQKPGQPPKLLIYWASTRESGVPDRFSGSGSGTDFTLTISSLQAEDVAVYYCKQSEHRRTFGGGTKVEIK
notes: IgG; also called Ab78
B2: SAD10320_P03_F09 (ADI-48656) (antibody, V domains shown)
VH: B1 VH with M100A, H101Y, R103H, Y104D
VL: B1 VL with E98Y
notes: IgG; also called Ab101
B3: SAD10319_P05_C05 (ADI-57405) (antibody, V domains shown)
VH: QVQLVQSGAEVKKPGASVKVSCKASGYTFTSYNMHWVRQAPGPRLEWMGWIDAGTGATHYSQKFQGRVTITRDTSASTAYMELSSLRSEDTAVYYCARDAYHHYFYDVWGQGTLVTVSS
VL: B1 VL with E98Y, H99S
notes: IgG; also called Ab132
B4: SAD10319_P05_A02 (ADI-57396) (antibody, V domains shown)
VH: B3 VH with T30A, N33D, P43Q, H59V, H102G, V108H
VL: B1 VL with E98Y, H99S
notes: IgG; also called Ab122
B5: SAD10319_P05_C01 (ADI-57403) (antibody, V domains shown)
VH: B3 VH with S31D, Y32D, N33A, P43Q, A57N, H59Y, R98H, H102G
VL: B1 VL with E98Y, H99S
notes: IgG; also called Ab130
B6: SAD10320_P04_A12 (ADI-57391) (antibody, V domains shown)
VH: B1 VH with M100A, H101Y, R103H, Y104V
VL: B1 VL with E98Y, R100H
notes: IgG; also called Ab117
B7: SAD10319_P05_C03 (ADI-57404) (antibody, V domains shown)
VH: B3 VH with P43Q, W50S, H59D
VL: B1 VL with E98Y, H99S
notes: IgG; also called Ab131
B8: SAD10320_P04_E11 (ADI-57388) (antibody, V domains shown)
VH: B1 VH with M100A, H101Y, R103H, Y104D
VL: B1 VL with E98Y, H99G, R100H
notes: IgG; also called Ab111
B9: SAD10319_P05_D03 (ADI-57408) (antibody, V domains shown)
VH: B3 VH with S31D, Y32D, N33A, P43H, A57N, H59Y, R98H, H102G
VL: B1 VL with E98Y, H99S
notes: IgG; also called Ab135
B10: SAD10320_P04_F12 (ADI-57394) (antibody, V domains shown)
VH: B1 VH with W47R, M100A, H101Y, R103H, Y104E
VL: B1 VL with E98Y, H99S
notes: IgG; also called Ab120
B11: SAD10320_P03_F08 (ADI-57378) (antibody, V domains shown)
VH: B1 VH with M100A, H101Y, R103H, Y104D
VL: B1 VL with T34P, E98Y, H99S
notes: IgG; also called Ab96
B12: SAD10320_P04_F10 (ADI-57385) (antibody, V domains shown)
VH: B1 VH with R44T, E46D, M100A, H101Y, Y104N, F105H
VL: B1 VL with T34P, E98Y, H99L, R100H
notes: IgG; also called Ab107
B13: SAD10320_P02_D06 (ADI-57368) (antibody, V domains shown)
VH: B1 VH with L45P, E46A, M100A, H101Y, R103H, Y104G
VL: B1 VL with E98Y, H99G, R100H
notes: IgG; also called Ab85
B14: SAD10319_P05_B04 (ADI-57401) (antibody, V domains shown)
VH: B3 VH with Y32A, N33V, P43Q, W50D, D52N, H59D, H102G, H103R
VL: B1 VL with E98Y, H99S
notes: IgG; also called Ab128
B15: SAD10320_P02_E06 (ADI-57369) (antibody, V domains shown)
VH: B1 VH with G8E, E46Q, M100A, H101Y, R103H, Y104G
VL: B1 VL with T34P, E98Y, H99S
notes: IgG; also called Ab86
B16: SAD10320_P03_H08 (ADI-57379) (antibody, V domains shown)
VH: B1 VH with M100A, H101Y, R103H, Y104V
VL: B1 VL with R33S, G35A, E98Y, H99R, R100H
notes: IgG; also called Ab97
B17: SAD10320_P02_A06 (ADI-57367) (antibody, V domains shown)
VH: B1 VH with E46P, M100A, G102E
VL: B1 VL with E98H, H99L
notes: IgG; also called Ab82
B18: SAD10320_P03_D08 (ADI-57377) (antibody, V domains shown)
VH: B1 VH with M100A, H101Y, R103H, Y104Q
VL: B1 VL with E98Y, R100T
notes: IgG; also called Ab95
B19: SAD10319_P05_D01 (ADI-57406) (antibody, V domains shown)
VH: B3 VH with S31E, N33D, P43Q, R44T, H59V, H102G, H103R, V108H
VL: B1 VL with E98Y, H99S
notes: IgG; also called Ab133
B20: SAD10319_P05_B05 (ADI-57402) (antibody, V domains shown)
VH: B3 VH with T30V, S31D, N33A, P43Q, A57N, H59D, Y101H, H102G
VL: B1 VL with E98Y, H99S
notes: IgG; also called Ab129
B21: SAD10320_P03_C09 (ADI-57381) (antibody, V domains shown)
VH: B1 VH with K23E, M100A, H101Y, R103H, Y104V
VL: B1 VL with E98Y, H99L, R100H
notes: IgG; also called Ab99
B22: SAD10320_P03_E07 (ADI-57374) (antibody, V domains shown)
VH: B1 VH with M100A, H101V, G102H
VL: B1 VL with E98Y, R100P
notes: IgG; also called Ab92
B23: SAD10320_P04_G10 (ADI-48658) (antibody, V domains shown)
VH: B1 VH with M100A, H101Y, R103H, Y104D
VL: B1 VL with E98Y, H99S
notes: IgG; also called Ab108
B24: SAD10320_P04_A11 (ADI-57386) (antibody, V domains shown)
VH: B1 VH with E46Q, M100A, H101R, G102H
VL: B1 VL with E98Y, H99S, R100H, R101G
notes: IgG; also called Ab109
B25: SAD10319_P05_D05 (ADI-57410) (antibody, V domains shown)
VH: B3 VH with T30A, S31D, N33A, P43H, W50D, D52I, H59K, A100H, H102G
VL: B1 VL with E98Y, H99S
notes: IgG; also called Ab138
B26: SAD10319_P05_A05 (ADI-57398) (antibody, V domains shown)
VH: B3 VH with S31A, N33T, P43Q, D52N, A53P, G54D, H59D
VL: B1 VL with E98Y, H99S
notes: IgG; also called Ab124
B27: SAD10320_P04_D12 (ADI-57392) (antibody, V domains shown)
VH: B1 VH with M100A, H101Y, R103H, Y104D
VL: B1 VL with E98Y, H99S, R100H
notes: IgG; also called Ab118
B28: SAD10319_P05_A01 (ADI-57395) (antibody, V domains shown)
VH: B3 VH with S31A, N33T, P43H, D52N, A53P, G54D, H59D
VL: B1 VL with E98Y, H99S
notes: IgG; also called Ab121
B29: SAD10319_P05_B03 (ADI-57400) (antibody, V domains shown)
VH: B3 VH with T30E, N33V, P43Q, D52H, A53S, A57N, H59D, H102G, V108H
VL: B1 VL with E98Y, H99S
notes: IgG; also called Ab127
B30: SAD10319_P05_A03 (ADI-57397) (antibody, V domains shown)
VH: B3 VH with T30N, S31D, N33A, P43Q, A57N, H59Y, Y101H, H102G
VL: B1 VL with E98Y, H99S
notes: IgG; also called Ab123
B31: SAD10320_P04_E10 (ADI-48657) (antibody, V domains shown)
VH: B1 VH with L45P, M100A, H101Y, R103H, Y104D
VL: B1 VL with E98Y, H99S
notes: IgG; also called Ab106
B32: SAD10320_P03_C08 (ADI-57376) (antibody, V domains shown)
VH: B1 VH with K23E, R44T, E46A, M100A, H101Y, R103H, Y104V
VL: B1 VL with E98Y, H99L, R100H
notes: IgG; also called Ab94
B33: SAD10320_P04_E12 (ADI-57393) (antibody, V domains shown)
VH: B1 VH with M100A, H101Y, R103H, Y104T
VL: B1 VL with E98Y, R100V
notes: IgG; also called Ab119
B34: SAD10320_P02_H06 (ADI-57372) (antibody, V domains shown)
VH: B1 VH with M100A, H101Y, Y104N, F105H
VL: B1 VL with N37S, E98Y, H99V, R100H
notes: IgG; also called Ab89
B35: SAD10320_P04_G11 (ADI-57390) (antibody, V domains shown)
VH: B1 VH with M100A, H101Y, G102R, R103H, Y104E
VL: B1 VL with E98Y, H99Y, R100H
notes: IgG; also called Ab115
B36: SAD10320_P04_F11 (ADI-57389) (antibody, V domains shown)
VH: B1 VH with M100A, H101Y, R103H, Y104E
VL: B1 VL with S97G, E98H, H99S
notes: IgG; also called Ab112
B37: SAD10320_P04_C10 (ADI-57383) (antibody, V domains shown)
VH: B1 VH with M100A, H101Y, R103H, Y104A
VL: B1 VL with E98Y, R100Q
notes: IgG; also called Ab104
B38: SAD10320_P03_A09 (ADI-57380) (antibody, V domains shown)
VH: B1 VH with M100A, H101Y, R103H, Y104V
VL: B1 VL with E98S
notes: IgG; also called Ab98
B39: SAD10319_P05_B02 (ADI-57399) (antibody, V domains shown)
VH: B3 VH with R44S, W50S, H59D
VL: B1 VL with E98Y, H99S
notes: IgG; also called Ab126
B40: SAD10320_P04_D10 (ADI-57384) (antibody, V domains shown)
VH: B1 VH with K23E, L45P, M100A, H101Y, R103H, Y104V
VL: B1 VL with E98Y, H99L, R100H
notes: IgG; also called Ab105
B41: SAD10319_P05_D02 (ADI-57407) (antibody, V domains shown)
VH: B3 VH with T30D, N33T, W50S, D52N, A57N, H59D, A100H, H102G
VL: B1 VL with E98Y, H99S
notes: IgG; also called Ab134
B42: SAD10320_P04_A10 (ADI-57382) (antibody, V domains shown)
VH: B1 VH with E46D, M100A, H101Y, R103H, Y104D
VL: B1 VL with E98Y, H99S
notes: IgG; also called Ab103
B43: SAD10319_P05_D04 (ADI-57409) (antibody, V domains shown)
VH: B3 VH with Y32D, N33Y, P43Q, D52N, H59D, R98H, H102G, H103R, F105H
VL: B1 VL with E98Y, H99S
notes: IgG; also called Ab137
B44: SAD10320_P04_D11 (ADI-57387) (antibody, V domains shown)
VH: B1 VH with E46Q, M100A, H101Y, R103H, Y104V
VL: B1 VL with E98Y, R100H
notes: IgG; also called Ab110
B45: SAD10320_P03_B07 (ADI-57373) (antibody, V domains shown)
VH: B1 VH with E46A, M100A, H101Y, R103H, Y104D
VL: B1 VL with E98Y, H99S
notes: IgG; also called Ab90

Target: T1, Cynomolgus CD3εδ Fc heterodimer (Cy …)
Assay: BLI (Octet), IgG on AHC sensor, pH 6.0

koff	Binder
0.00318 s⁻¹	B1
0.00719 s⁻¹	B2
0.00821 s⁻¹	B3
0.0246 s⁻¹	B4
0.013 s⁻¹	B5
0.0168 s⁻¹	B6
0.00327 s⁻¹	B7
0.00297 s⁻¹	B8
0.0233 s⁻¹	B9
0.00259 s⁻¹	B10
0.00268 s⁻¹	B11
0.00239 s⁻¹	B12
0.00621 s⁻¹	B13
0.00258 s⁻¹	B14
0.0303 s⁻¹	B15
0.015 s⁻¹	B16
0.00264 s⁻¹	B17
0.00194 s⁻¹	B18
0.00929 s⁻¹	B19
0.00654 s⁻¹	B20
0.0051 s⁻¹	B21
0.00699 s⁻¹	B22
0.0189 s⁻¹	B23

koff	Binder
0.00741 s⁻¹	B24
0.0158 s⁻¹	B25
0.0118 s⁻¹	B26
0.00259 s⁻¹	B27
0.0251 s⁻¹	B28
0.0346 s⁻¹	B29
0.0127 s⁻¹	B30
0.00258 s⁻¹	B31
0.0152 s⁻¹	B32
0.0108 s⁻¹	B33
0.00281 s⁻¹	B34
0.00276 s⁻¹	B35
0.00192 s⁻¹	B36
0.0187 s⁻¹	B37
0.0029 s⁻¹	B38
0.00411 s⁻¹	B39
0.0171 s⁻¹	B40
0.0241 s⁻¹	B41
0.0144 s⁻¹	B42
0.022 s⁻¹	B43
0.00338 s⁻¹	B44
0.00224 s⁻¹	B45

Reference: US20220380463A1 (Adimab, published 2022)
